According to US20090136510A1 (Eli Lilly, published 2009):
Blank lines part the entries; values can stand above or below the binder they belong to.

Columns and labels:
[1] = molecular target: T1, recombinant human RON protein (rh-RON protein, R&D Systems; recombinant human MSPR) (human, UniProt Q04912 25-571); assay: ELISA, blocking of MSP/RON interaction; ligand MSP
T1 construct: Bought soluble recombinant protein; also called rhu-RON protein; rh-MSPR; not shown: His tag on the recombinant protein
T1 sequence (looked up): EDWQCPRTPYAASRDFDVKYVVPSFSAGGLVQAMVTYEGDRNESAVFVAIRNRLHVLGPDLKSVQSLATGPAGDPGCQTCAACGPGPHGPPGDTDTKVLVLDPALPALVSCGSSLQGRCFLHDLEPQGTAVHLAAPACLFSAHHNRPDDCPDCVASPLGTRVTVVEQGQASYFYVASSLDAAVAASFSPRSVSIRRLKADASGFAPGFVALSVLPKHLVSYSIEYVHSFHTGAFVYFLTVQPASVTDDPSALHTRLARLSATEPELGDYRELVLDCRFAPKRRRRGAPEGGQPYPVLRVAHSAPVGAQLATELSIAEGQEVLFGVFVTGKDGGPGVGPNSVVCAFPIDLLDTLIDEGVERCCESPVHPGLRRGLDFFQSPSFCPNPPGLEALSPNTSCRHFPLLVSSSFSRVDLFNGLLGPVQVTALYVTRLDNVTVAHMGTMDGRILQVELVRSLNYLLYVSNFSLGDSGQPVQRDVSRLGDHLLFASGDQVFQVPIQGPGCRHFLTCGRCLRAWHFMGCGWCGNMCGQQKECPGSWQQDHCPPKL

Recombinant RON-Fc [2] = molecular target: T2, Recombinant RON-Fc (UniProt Q04912 25-957, limits assumed); assay: comparison of KD values; reference RON1
T2 construct: Immobilised on the BIAcore chip; also called RON proteins; not shown: Fc part
T2 sequence (looked up): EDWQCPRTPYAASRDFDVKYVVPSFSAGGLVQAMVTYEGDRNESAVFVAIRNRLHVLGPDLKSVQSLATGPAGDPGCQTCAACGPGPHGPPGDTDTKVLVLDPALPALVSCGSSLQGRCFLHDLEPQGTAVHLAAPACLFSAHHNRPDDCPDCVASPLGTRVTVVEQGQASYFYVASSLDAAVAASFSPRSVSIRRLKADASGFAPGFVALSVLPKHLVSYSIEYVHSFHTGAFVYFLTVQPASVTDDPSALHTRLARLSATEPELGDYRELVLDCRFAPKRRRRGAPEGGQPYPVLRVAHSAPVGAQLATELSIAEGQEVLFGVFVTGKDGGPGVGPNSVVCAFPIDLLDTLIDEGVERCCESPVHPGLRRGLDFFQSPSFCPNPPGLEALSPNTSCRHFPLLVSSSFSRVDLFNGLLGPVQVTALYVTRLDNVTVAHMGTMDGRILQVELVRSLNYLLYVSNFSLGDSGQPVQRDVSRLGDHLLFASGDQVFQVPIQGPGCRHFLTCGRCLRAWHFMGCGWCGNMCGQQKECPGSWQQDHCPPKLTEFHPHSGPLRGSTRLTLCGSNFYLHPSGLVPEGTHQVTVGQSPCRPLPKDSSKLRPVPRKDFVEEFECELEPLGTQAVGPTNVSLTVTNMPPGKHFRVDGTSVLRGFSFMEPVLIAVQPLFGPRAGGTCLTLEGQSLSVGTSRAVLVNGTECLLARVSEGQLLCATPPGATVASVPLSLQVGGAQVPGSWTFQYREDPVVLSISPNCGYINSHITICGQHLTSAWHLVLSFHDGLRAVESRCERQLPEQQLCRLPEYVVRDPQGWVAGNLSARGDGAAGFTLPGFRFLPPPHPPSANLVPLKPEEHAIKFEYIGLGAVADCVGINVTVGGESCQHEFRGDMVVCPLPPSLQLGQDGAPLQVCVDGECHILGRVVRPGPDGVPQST

Recombinant RON-Fc [3] = molecular target: T2, Recombinant RON-Fc; assay: method and RON form not stated at this place; clone-selection value of paragraph 178; method and RON form not stated
Recombinant RON-Fc [4] = molecular target: T2, Recombinant RON-Fc; assay: SPR (BIACORE 3000), RON-Fc immobilised, antibody injected; BIACORE 3000, RON-Fc immobilized
Method: BIAcore Analysis. The binding kinetics of the antibodies to the RON proteins was determined by using a BIACORE 3000 (BIAcore, Piscataway, N.J.). Recombinant RON-Fc was immobilized onto a sensor chip, and antibody was injected at various concentrations. Sensorgrams were obtained and evaluated using BIA Evaluation 2.0 software to determine rate constants. The affinity constant, KD, was calculated from the ratio of the rate constants Koff/Kₒₙ. The “Kₒₙ, M⁻¹.S⁻¹” and “Koff, S⁻¹” rates of the interaction were used to determine the affinity (Kd, M) of the antibody/receptor interaction. […] For RON8 they were: 3.2e-11, 6.1e6 and 2.0e-4

[5] = molecular target: T1, recombinant human RON protein (rh-RON …); assay: ELISA, receptor immobilised on the plate (given as ED50)
Method: The ability of the anti-RON antibodies, RON6 and RON8, to bind to recombinant human RON receptor and to block the MSP/RON interaction were measured using ELISA. […] Using the same ELISA format, the two antibodies were tested for their ability to block MSP/RON interactions. The measured IC₅₀ values were 46 pM for RON6 and 62 pM for RON8.

[6] = molecular target: T1, recombinant human RON protein (rh-RON …); assay: blocking ELISA: serially diluted RON8 pre-incubated with His-tagged recombinant human RON (rh-MSPR), added to plate-immobilised recombinant human MSP (the blocked ligand); bound RON detected with anti-His-tag HRP, absorbance 450 nm
Method: ELISA to Detect RON8 Blocking of MSP Binding to RON: ELISA plates were coated with 100 ng/well carrier-free MSP (R&D Systems) overnight at 4° C. on a rocker. The plate was washed once with 0.2% PBS/T and blocked for 2 hours at 37° C. with 150 μL/well 3% milk. A 15 μg/mL dilution of RON8 was prepared and serially diluted across another ELISA plate. To the RON8, was added 100 ng/well recombinant human MSPR (R&D Systems). The RON8/rh-MSPR complex was allowed to form for 2 hours at room temperature on a rocker. Next, the MSP-coated ELISA plate was washed once with 0.2% PBS/T and 100 μL of the RON8/rh-MSPR complex were added per well. After a 1.5-hour incubation at room temperature, the plate was washed five times with 0.2% PBS/T and incubated for 1 hour at room temperature with a 1:2,000 dilution of anti-His-tag HRP antibody (Sigma), which recognizes a His tag on the recombinant human MSPR protein. The plate was washed five times with 0.2% PBS/T and 100-AL substrate was added per well until a yellow color developed. The reaction was stopped with 50 μL of 1N H₂SO4 and the absorbance at 450 nm determined with a standard plate reader. The results of which are illustrated by FIG. 6A depict the solid-phase blocking characteristic of RON8. The ELISA data determined the IC50 value of RON8 needed to block the interaction of recombinant human RON protein to immobilized recombinant human MSP.

IC50 [1]: 0.046 nM
fold greater affinity than RON1 (Recombinant RON-Fc [2]): 100 fold
Kd (Recombinant RON-Fc [3]): 0.045 nM
Kd (Recombinant RON-Fc [4]): 0.041 nM
koff (Recombinant RON-Fc [4]): 8.6e-05 s⁻¹
kon (Recombinant RON-Fc [4]): 2.2e+06 M⁻¹ s⁻¹
EC50 [5]: 0.0042 nM
B1: RON6 antibody (human anti-RON monoclonal antibody) (antibody, human IgG1, kappa, V domains shown)
VH: QVQLVQSGPEVKKSGSSVKVSCKASGGTFSSDAITWVRQAPGQGLEWMGGIIPILGMANYAQKFQGRVTITADKSTNTAYMELSSLRSEDTAVYFCARVADYYGLGTYYWYFDLWGRGTLVTVSS
VL: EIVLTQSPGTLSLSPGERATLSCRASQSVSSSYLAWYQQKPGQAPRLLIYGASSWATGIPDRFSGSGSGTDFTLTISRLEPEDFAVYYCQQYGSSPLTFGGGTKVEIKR
notes: Fully human IgG from HuMAb mice

IC50 [1]: 0.062 nM
IC50 [6]: 0.473 nM
IC50 (read off the curve) [6]: ~0.5 nM
fold greater affinity than RON1 (Recombinant RON-Fc [2]): 100 fold
Kd (Recombinant RON-Fc [3]): 0.023 nM
Kd (Recombinant RON-Fc [4]): 0.032 nM
koff (Recombinant RON-Fc [4]): 0.0002 s⁻¹
kon (Recombinant RON-Fc [4]): 6.1e+06 M⁻¹ s⁻¹
EC50 [5]: 0.0021 nM
B2: RON8 antibody (human anti-RON monoclonal antibody) (antibody, human IgG1, kappa, V domains shown)
VH: EVQLVESGGGLVQPGGSLRLSCAASGFTFSSYLMTWVRQAPGKGLEWVANIKQDGSEKYYVDSVKGRFTISRDNAKNSLNLQMNSLRAEDTAVYYCTRDGYSSGRHYGMDVWGQGTTVIVSS
VL: EIVLTQSPATLSLSPGERATLSCRASQSVSRYLAWYQQKPGQAPRLLIYDASNRATGIPARFSGSGSGTDFTLTISSLEPEDFAVYYCQQRSNWPRTFGQGTKVEIKR
notes: as for B1
